# Assay results from the DeepSol protein solubility set.
# Experiment: soluble on expression in E. coli; label from the status in PepcDB or PDB records
row,Sequence,soluble on expression in E. coli
1,MSLRSEVKAEDTWRLEDIFPSDEAWNKEFQAVKELIPNLSKYKGKLADSADHLYEALTYQDKVMERLGRLYTYAHMRSDQDTGNSFYQGLNDKAGNLYTQAESATAYLVPEILSIEEDKLQQFILEKEELKLYSHAIEEITKERPHVLSEKEEALLAEASEVLGSSSNTFSVLNNADITFPSIKDEDGNEKQITHGNFINFLESENREVRKNAFDAVYKTYGQYKNTMATTLSGTVKKDNFYARVKKYKSAREAALSNNSIPEEVYDNLVKTINKHLPLLHRYIALRKKVLELDEVHIYDLYTPLVKDAGMKVTYEEAKDYMLKGLAPLGEEYASILKEGLENRWVDVYENKGKRNGAYSSGAYGTNPYILMNWHNNVNNLFTLVHEFGHSVHSYYTRKHQPYPYGNYSIFVAEVASTTNEALLGEYLLNNLEDEKQRLYILNHMLEGFRGTVFRQTMFAEFEHLIHTKAQEGEPLTPELLTNVYYDLNKKYFGDGMVIDKEIGLEWSRIPHFYYNYYVYQYATGYSAAQALSSQILKEGKPAVDRYIDFLKAGSSQYPIDVLKKAGVDMTSPEPIEAACKMFEEKLDEMEELLMKVKEGHHHHHH,soluble
2,MALIELRHVKKEFSGKAGKVTALKDIDLTVESGDIYGIIGYSGAGKSTLVRLLNGLETPTEGEVEIQGQDIALLPNKELRNFRKKIGMIFQHFNLLWSRTVLENIMLPLEIAGVPKQNRKSRAEELIKLVGLEGRETAYPSQLSGGQKQRVGIARALANNPDILLCDEATSALDPQTTDEVLELLLKINQELNLTVVLITHEMHVIRKICNRVAVMEYGEIVEEGKVIDIFKKPQTEIAKRFIQQEADKNIEETELVVEEMLEQYPNGKIVRLLFHGEQAKLPIISHIVQEYQVEVSIIQGNIQQTKQGAVGSLYIQLLGEEQNILAAIEGLRKLRVETEVIGNE,not soluble
3,MLRSNLCRGSRILARLTTTPRTYTSAATAAAANRGHIIKTYFNRDSTTITFSMEESSKPVSVCFNNVFLRDASHSAKLVTTGELYHNEKLTAPQDIQISEDGKSLVVKWKDGGHHQFPLQFFIDYKGSSFVSPATRKQESRYRPQLWNKRILKDNVKDLLSVSYNEFIDPKDDSKLFQTLVNLQKFGIAFISGTPSSSSEGLTIQKICERIGPIRSTVHGEGTFDVNASQATSVNAHYANKDLPLHTDLPFLENVPGFQILQSLPATEGEDPNTRPMNYFVDAFYATRNVRESDFEAYEALQIVPVNYIYENGDKRYYQSKPLIEHHDINEDNTLLGNYEALIKCINYSPPYQAPFTFGIYDKPSDLNNNLDLNLITTPAKLTERFLFKSFIRGLNLFESHINDFNNQFRLQLPENCCVIFNNRRILHANSLTSSNQQWLKGCYFDSDTFKSKLKFLEEKFPHDK,soluble
4,MGSDKIHHHHHHMPLLDIRNLTIELDTPEGTVKVLEKVSLTINPGEIHGLVGESGSGRSLLAKAILGVLGPNWHIIADRMMWDGKNLLEMSSKQRRCLMGSEMAMIFQDPSGSLDPVKTIGSQLIEAMVPNKNIPFWRRGKATYLNAQKWLHKVGIKKPKQLMKCYPWELSEGECQKVMIAMAVANHPKLLIADEPTNSMELNTQAQIFRLLSQLNQLQNVSILLVSHELETMVHWCDNLTILYSGQVMESGPVSEMVAMPYHPYTRALLKNLPDHTEKMRHKANLPTLQGSSPSLQHLPAGCRLGPRCPEAQRQCVKQPNLEHIKDRYFACHFPYQSEQEDDDAIA,not soluble
5,MHHHHHHSSGVDLGTENLYFQSMKIAVIGQSLFGQEVYCHLRKEGHEVVGVFTVPDKDGKADPLGLEAEKDGVPVFKYSRWRAKGQALPDVVAKYQALGAELNVLPFCSQFIPMEIISAPRHGSIIYHPSLLPRHRGASAINWTLIHGDKKGGFSIFWADDGLDTGDLLLQKECEVLPDDTVSTLYNRFLFPEGIKGMVQAVRLIAEGKAPRLPQPEEGATYEGIQKKETAKINWDQPAEAIHNWIRGNDKVPGAWTEACEQKLTFFNSTLNTSGLVPEGDALPIPGAHRPGVVTKAGLILFGNDDKMLLVKNIQLEDGKMILASNFFK,soluble
6,MGHHHHHHSHGTRAFGARRNTIDSTSSFSQFRNLSHRSLSIGRASGTQGSLDTGSDLGDFMDYDPNLLDDPQWPCGKHKRVLIFPSYMTTVIDYVKPSDLKKDMNETFKEKFPHIKLTLSKIRSLKREMRKLAQEDCGLEEPTVAMAFVYFEKLALKGKLNKQNRKLCAGACVLLAAKIGSDLKKHEVKHLIDKLEEKFRLNRRELIAFEFPVLVALEFALHLPEHEVMPHYRRLVQSS,soluble
7,MSLNQLLFVPLGGIGEIGMNLALYGYGPEHAREWIAVDVGISFAGADFPGVDLVFPDIRFIEELGDKLKGIVITHAHEDHYGALLDLWPKMKVPVYATAFTAAMLAAKREGEPGAPKIPVTQFSAGDRFKVGPFEIEAINVTHSIPEPVALAIRSPAGTVVHTGDWKIDPTPALGAPTDEKRLREIGDEGVLAMICDSTNALREGVSPSESEVSASLGEIIRGAKGRVAVTTFSSNVGRIRSIAAAARDAGRQVLLMGRSMRRVVDVSTELGYMDGIPPFLGEQDFGYIPPEKAVIILTGSQGETRAALARLSRDEHPTVALSQGDLVIFSSRAIPGNEKLIIDIKNALIERGVQILEDGEKLVHVSGHPRRSEMRQMYEWVRPTIAVPAHGEAAHLSAHAKLARELGVKQVVPARNGKMVQLSPGAASVIADVPVGRLFKDEGHHHHHH,soluble
8,SRGRGGTGGARRLSCGARRRAARGTSPGRRLSTAWSQPQPPPEEYAGADDVSQSPVAEEPSWVPSPRPPVPHESPEPPSGRSLVQRDIQAFLNQCGASPGEARHWLTQFQTCHHSADKPFAVIEVDEEVLKCQQGVSSLAFALAFLQRMDMKPLVVLGLPAPTAPSGCLSFWEAKAQLAKSCKVLVDALRHNAAAAVPFFGGGSVLRAAEPAPHASYGGIVSVETDLLQWCLESGSIPILCPIGETAARRSVLLDSLEVTASLAKALRPTKIIFLNNTGGLRDSSHKVLSNVNLPADLDLVCNAEWVSTKERQQMRLIVDVLSRLPHHSSAVITAASTLLTELFSNKGSGTLFKNAERMLRVRSLDKLDQGRLVDLVNASFGKKLRDDYLASLRPRLHSIYVSEGYNAAAILTMEPVLGGTPYLDKFVVSSSRQGQGSGQMLWECLRRDLQTLFWRSRVTNPINPWYFKHSDGSFSNKQWIFFWFGLADIRDSYELVNHAKGLPDSFHKPASDPGS,soluble
9,MTKIACVIVTYNRKQLLEEALNSVLIQTESPEYVFVIDNASTDGTEKYINDKFNFDNRQWHYVRCSQNLGGSAGFAQGMRLALQTDCSWISISDDDAIFEPGYFAALRKGIKQYPEQSVFSGSVLLPDGKHDMMHREVITNSATLTVRCVTDETYKHDFSYDIFSFVGILLSRQVIEAIGLPEQDYFIRFDDFEYAVRALKFGRFMNLSAAKVLHKTTYTRSALEHHHHHH,not soluble
10,MSRVKLGHHYYYIVTPQDLRDGKYKGKNIVIEGEIKDKPIIEFLPMELPSYRTIFRVSGFKVEFSGTPNVRMGEKVKVYGVFVGDGIIARAIETEGAIYITEE,soluble
11,MGSDKIHHHHHHMRIILASSSPRRRQLMELLGIEFEVEKPDVEEEFLESPEETVRELSLRKAEWVFKKRKEEEILVIGSDTVVVLDGNILGKPESLEEAKGMLKKLSGKWHVVYTGVAFVSSETKDVIVSSTKVRFRELPESVIDYYVEKYRPLDKAGAYGIQDFAAVFVEKIEGDFFTVVGFPLGMVWQYLYEKGWWKVASKREDDKGGARVAFG,not soluble
12,YLASDGKTIIMVGRNNLQNEELTFKIAKKGELWFHAKDIPGSHVVIKDNLNPTDEVKTDAAELAAYYSKARLSNLVQVDMIDVKKLNK,not soluble
13,MQQYAQRDKKHEYWFAVPQERTDHLYAFFIQWSPEIYAEDTGEYTREPGFIVVKKIEESETIEDSSNQAAAREWEITTREDINSKQVATVKADLESESFRPNLSDPSELLLPDQIEKLTKHLPPRTIGYPWTLVYGTGKHGTSLKTLYRTMTGLDTPVLMVIKDSDGQVFGALASEPLKVSDGFYGTGETFVFTFCPEFEVFKWTGDDMFFIKGDMDSLAFGGGGGEFALWLDGDLYHGRSHSCKTFGNRTLSKKEDFFIQDIEIWAFELEHHHHHH,not soluble
14,GSKKKVKELKVLDSKTAQNLSIFLGSFRMPYQEIKNVILEVNEAVLTESMIQNLIKQMPEPEQLKMLSELKEEYDDLAESEQFGVVMGTVPRLRPRLNAILFKLQFSEQVENIKPEIVSVTAACEELRKSENFSSLLELTLLVGNYMNAGSRNAGAFGFNISFLCKLRDTKSADQKMTLLHFLAELCENDHPEVLKFPDELAHVEKASRVSAENLQKSLDQMKKQIADVERDVQNFPAATDEKDKFVEKMTSFVKDAQEQYNKLRMMHSNMETLYKELGDYFVFDPKKLSVEEFFMDLHNFRNMFLQAVKENQKRRETEEKMRRAKLAKEKAEKERLEKQ,soluble
15,MAHHHHHHMRRQTRLFSRLAVEIPNSHWLPRRLLLVRHGESEANVDRSQYSRIPDWKIPLTERGRAQALDCGRRLRNIIKNEKLYIYYSPYVRTQQTLAEVRKSLEESQVQGEREDERLREQEIGNFQPLDKMDRTWDERSNFGRSYYRFPDGESSVDVGDRVSTFFDSLFRERLELYSLSAGDPEDEDGPLNVPGEDDQNVLIISHGLLIRLFIARWFRVPLEAFETMRNPPNCSIVVLERQESARMVMTDISKKLFGSDPLLEMMKFDGKDSTKRYRHMFFSDHSGSFTPAEGV,not soluble
16,MRHHTIHPQLEQVFSAPYLRQLQKVTFQKGNYIGTQGQDITELTYILSGRVKIVRSLSNGKEHILQMPQQPQLLGDVELMTNQLAGSSVIALEEVQAAQLPLNNKEALLKDPIFLYHIGRNLAMALHRQGITASTNASYFVKERLATHILNIEEQDIFQLSPSILSSSFGTSYRHVQRVIKQFIDQGIIEKKAFKTYRILQRDSLETLAFID,not soluble
17,MHYCDLDIAECDGVYPPSEDSFLIIEYASCSGKAIEIGCGTGIVSICFLKRGCDIEAVDISDLAVECAKDNASRNGLTLKVYRSDLFSGVSGTYDTILFNAPYIPVEGEDASWSGGRNLEVVSRFLGQAREHLSASGQIYIVLSDLTDNEGMFRMMGYDYFIIKKISFEFEAIVLYKLTLKALEHHHHHH,soluble
18,GTGAESTAERSARFERDALEFLDQMYSAALRMTRNPADAEDLVQETYAKAYASFHQFREGTNLKAWLYRILTNTFINSYRKKQREPQ,soluble
19,MSLKLVAIAGSIGEQSYNRMLLQYIAKHFENLVDIELLNIDDVPVFNEDEDLSDNIKIQKIYQKIYGADGVILATPEHNHTVTAAIKNVIEWLSFKLHPFDGKPVWIVGASYFNQGSSRAQLHLKQILEAPGVNAIVMPGNEFLLRNAKEAFDAEGQLKDAGTVQFLEMVIQKFIKFVKVIDMLDAPDPKSYQDEDLESKGKVNTTIEGVDMHDEHWVEKAAQKVHAVDGSTYVKLDRGILTVDQLNYFLKTMPVELTYADDNNQFIYYNKNQPADKMLAPRNPGQAGDPLADVHPGRAVDRVKQVIHALRTGETDLVSMPVPGNGPDRHVMHYYKAMRDENGRYRGVNEWVTDIMPIIKYYLASTGEGHHHHHH,soluble
20,MAVYANTSVQDFYEFWLEEVKKKSLSYNSYYSFKKTVQNYILPLYGRLSMGKLRKNHVKRIYKKTYETSPSVAKIVKTVLTTSFKYALRYGYVEEDYVTGLKWNRVILEHHHHHH,not soluble
21,MGSSHHHHHHGGTGENLYFQGGSGMSNSTEQALLQIAQQIERAVDDEIDRIDQMDDDEILAIRQKRLKQLKEIQARRDEWLRKGHGQYLEIAEPKEFFDNVQSSERIVVHFMRRSTPRCEIIERHLRTIAHEHFETRFCYVDVERIPSLPERFNVMMLPTLMLVEKGHTFHSIIGFDEFGGTDDFTTDTVTQVLAHYGMVNEKGMFAADQNDE,soluble
